Measured values published in the supplement of paper PMC7877785.
± gives the uncertainty stated by the source.

Assay: self-splicing fitness, log relative to wild type (ln ratio); higher = more splicing; Tetrahymena group I intron in knt gene, E. coli kanamycin selection, DiMSum; sequences stand for … in CUCUCU…GGAGGGAAAAGUUAUCAGGCAUGCACCUGGUAGCUAGUCUUUAAACCAAUAGAUUGCAUCGGUUUAAAAGGCAAGACCGUCAAAUUGCGGGAAAGGGGUCAACAGCCGUUCAGUACCAAGUCUCAGGGGAAACUUUGAGAUGGCCUUGCAAAGGGUAUGGUAAUAAGCUGACGGACAUGGUCCUAACCACGCAGCCAAGUCCUAAGUCAACAGAUCUUCUGUUGAUAUGGAUGCAGUUCACAGACUAAAUGUCGGUCGGGGAAGAUGUAUUCUUCUCAUAAGAUAUAGUCGGACCUCUCCUUAAUGGGAGCUAGCGGAUGAAGUGAUGCAACACUGGAGCCGCUGGGAACUAAUUUGUAUGCGAAAGUAUAUUGAUUAGUUUUGGAGUACUCGUGGUCG
Summary of the method: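 A randomised library covering all eight P1ex-region intron nucleotides was built with the intron in the knt kanamycin-resistance gene on pET-22b(+) and held in E. coli BL21(DE3). Cells were grown overnight at 37°C or 30°C on LB agar, with or without 25 μg/mL kanamycin, plus 100 μg/mL carbenicillin, 50 μM IPTG and 0.2% rhamnose, and pooled colonies were amplicon-sequenced on an Illumina HiSeq 2500. DiMSum fitness is the error-weighted combination of wild-type-normalised replicate fold changes, kanamycin versus none.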

Sequence	self-splicing fitness (ln) (30 °C)	self-splicing fitness (ln) (37 °C)
GGGUAGCAAUAUUACGCGUG	-0.787 ± 0.13	0.175 ± 0.12
GGGUAGCAAUAUUACGCUUA	-0.435 ± 0.15	-0.957 ± 0.13
GGGUAGCAAUAUUACGGCUU	-0.41 ± 0.11	0.232 ± 0.12
GGGUAGCAAUAUUACGUGUA	-0.214 ± 0.12	-0.897 ± 0.14
GGGUAGCAAUAUUACGUUAU	-3.17 ± 0.25	-1.33 ± 0.15
GGUAAGCAAUAUUACGAAUC	-0.515 ± 0.13	-0.339 ± 0.16
GGUAAGCAAUAUUACGAUCG	-0.894 ± 0.1	0.451 ± 0.17
GGUAAGCAAUAUUACGAUUG	-3.48 ± 0.48	-3.44 ± 0.39
GGUAAGCAAUAUUACGCGGA	-0.857 ± 0.18	-2.25 ± 0.2
GGUAAGCAAUAUUACGGCAC	-0.762 ± 0.096	-0.531 ± 0.15
GGUAAGCAAUAUUACGGGGC	-3.8 ± 0.32	-2.09 ± 0.31
GGUAAGCAAUAUUACGGUUA	-0.532 ± 0.12	-0.38 ± 0.096
GGUAAGCAAUAUUACGUAUA	-1.77 ± 0.21	-1.68 ± 0.26
GGUAAGCAAUAUUACGUCAA	-1.9 ± 0.26	-1.62 ± 0.2
GGUAAGCAAUAUUACGUGAC	-1.4 ± 0.076	-1.66 ± 0.12
GGUAAGCAAUAUUACGUGAG	-1.03 ± 0.079	0.0462 ± 0.09
GGUAAGCAAUAUUACGUGGA	-2.91 ± 0.21	-2.52 ± 0.2
GGUAAGCAAUAUUACGUUCG	-0.34 ± 0.15	-0.4 ± 0.18
GGUAAGCAAUAUUACGUUGA	-1.76 ± 0.21	-1.03 ± 0.15
GGUCAGCAAUAUUACGAAGG	-0.594 ± 0.14	-0.251 ± 0.22
GGUCAGCAAUAUUACGACAC	0.184 ± 0.32	-0.0653 ± 0.25
GGUCAGCAAUAUUACGACAU	0.0683 ± 0.013	0.148 ± 0.033
GGUCAGCAAUAUUACGACCA	-0.982 ± 0.16	-0.657 ± 0.23
GGUCAGCAAUAUUACGAGGC	-3.61 ± 0.3	-2.84 ± 0.43
GGUCAGCAAUAUUACGAUGC	-0.354 ± 0.091	0.43 ± 0.11

Sequence	self-splicing fitness (ln) (30 °C)	self-splicing fitness (ln) (37 °C)
GGUCAGCAAUAUUACGCCCU	-0.704 ± 0.14	0.198 ± 0.17
GGUCAGCAAUAUUACGCGAU	-2.41 ± 0.18	–
GGUCAGCAAUAUUACGCGCC	0.245 ± 0.39	–
GGUCAGCAAUAUUACGCUGC	-1.88 ± 0.25	-3.17 ± 0.47
GGUCAGCAAUAUUACGGAGC	-1.4 ± 0.18	-0.82 ± 0.14
GGUCAGCAAUAUUACGGCGG	-0.828 ± 0.049	-0.274 ± 0.065
GGUCAGCAAUAUUACGGCGU	0.348 ± 0.11	0.0889 ± 0.12
GGUCAGCAAUAUUACGGCUU	-1.18 ± 0.087	-0.0465 ± 0.12
GGUCAGCAAUAUUACGGGGG	–	-2.15 ± 0.34
GGUCAGCAAUAUUACGGUAG	-2.15 ± 0.18	-0.967 ± 0.19
GGUCAGCAAUAUUACGGUUC	0.308 ± 0.096	-0.214 ± 0.1
GGUCAGCAAUAUUACGUAGU	-0.367 ± 0.064	0.693 ± 0.075
GGUCAGCAAUAUUACGUCAG	-3.99 ± 0.4	-3.23 ± 0.47
GGUCAGCAAUAUUACGUCCG	-0.0947 ± 0.13	-0.124 ± 0.19
GGUCAGCAAUAUUACGUCGA	-0.64 ± 0.098	-0.54 ± 0.1
GGUCAGCAAUAUUACGUCUA	-0.0881 ± 0.073	0.0699 ± 0.078
GGUCAGCAAUAUUACGUGUG	-1.39 ± 0.069	-0.514 ± 0.092
GGUCAGCAAUAUUACGUUCC	-0.328 ± 0.24	-0.643 ± 0.28
GGUCAGCAAUAUUACGUUGA	-3.12 ± 0.27	-1.76 ± 0.25
GGUGAGCAAUAUUACGAAUG	-3.14 ± 0.29	-2.36 ± 0.5
GGUGAGCAAUAUUACGACGC	-0.546 ± 0.19	-0.0795 ± 0.28
GGUGAGCAAUAUUACGAUCC	–	-0.766 ± 0.35
GGUGAGCAAUAUUACGAUUA	–	-0.938 ± 0.45
GGUGAGCAAUAUUACGCGAA	-2.96 ± 0.14	-1.65 ± 0.13
GGUGAGCAAUAUUACGCGAC	-3.49 ± 0.29	-3.12 ± 0.25

Sequence	self-splicing fitness (ln) (30 °C)	self-splicing fitness (ln) (37 °C)
GGUGAGCAAUAUUACGCGGU	–	-1.5 ± 0.42
GGUGAGCAAUAUUACGCUAC	-2.34 ± 0.2	–
GGUGAGCAAUAUUACGCUGC	-3.91 ± 0.28	-2.65 ± 0.32
GGUGAGCAAUAUUACGGACG	-0.0602 ± 0.16	0.806 ± 0.32
GGUGAGCAAUAUUACGGCCG	-1.15 ± 0.38	-2.11 ± 0.24
GGUGAGCAAUAUUACGUGAA	-1.76 ± 0.36	-1.27 ± 0.32
GGUGAGCAAUAUUACGUGCG	-0.62 ± 0.12	-0.505 ± 0.18
GGUGAGCAAUAUUACGUGUG	-3.28 ± 0.2	-2.47 ± 0.2
GGUGAGCAAUAUUACGUUAG	-3.01 ± 0.2	-2.83 ± 0.3
GGUGAGCAAUAUUACGUUAU	-3.23 ± 0.2	-1.84 ± 0.19
GGUGAGCAAUAUUACGUUUC	-3.36 ± 0.29	-1.68 ± 0.25
GGUUAGCAAUAUUACGAAUG	-0.2 ± 0.3	-0.491 ± 0.33
GGUUAGCAAUAUUACGAGAG	-2.64 ± 0.44	-2.45 ± 0.39
GGUUAGCAAUAUUACGAGCA	-0.943 ± 0.1	-0.264 ± 0.1
GGUUAGCAAUAUUACGAUGA	-0.915 ± 0.12	-0.286 ± 0.13
GGUUAGCAAUAUUACGAUUG	-1.56 ± 0.19	-1.1 ± 0.21
GGUUAGCAAUAUUACGCCCA	-0.993 ± 0.27	-1.13 ± 0.3
GGUUAGCAAUAUUACGCUAU	-4.15 ± 0.46	-2.72 ± 0.34
GGUUAGCAAUAUUACGCUCU	-2.24 ± 0.18	-0.596 ± 0.17
GGUUAGCAAUAUUACGCUUA	-1.58 ± 0.13	-0.641 ± 0.12
GGUUAGCAAUAUUACGGACU	–	-1.31 ± 0.23
GGUUAGCAAUAUUACGGAGC	-2.27 ± 0.24	-1.43 ± 0.29
GGUUAGCAAUAUUACGGAGG	-3.02 ± 0.2	-2.78 ± 0.18
GGUUAGCAAUAUUACGGCAA	0.963 ± 0.39	-0.363 ± 0.27
GGUUAGCAAUAUUACGGCAG	-1.83 ± 0.19	-1.43 ± 0.21

Sequence	self-splicing fitness (ln) (30 °C)	self-splicing fitness (ln) (37 °C)
GGUUAGCAAUAUUACGGUAU	-1.55 ± 0.11	-0.531 ± 0.11
GGUUAGCAAUAUUACGGUGU	-2.18 ± 0.11	-0.973 ± 0.15
GGUUAGCAAUAUUACGUAUA	-1.45 ± 0.14	-1.24 ± 0.19
GGUUAGCAAUAUUACGUCAG	-3.16 ± 0.47	–
GGUUAGCAAUAUUACGUCUG	-2.1 ± 0.14	-0.405 ± 0.11
GGUUAGCAAUAUUACGUGAU	-2.18 ± 0.19	-1.14 ± 0.2
GUAAAGCAAUAUUACGAUGC	-0.312 ± 0.11	-0.105 ± 0.11
GUAAAGCAAUAUUACGCAAC	–	-0.263 ± 0.42
GUAAAGCAAUAUUACGCACA	0.186 ± 0.082	0.579 ± 0.11
GUAAAGCAAUAUUACGCCGU	-0.433 ± 0.085	0.561 ± 0.11
GUAAAGCAAUAUUACGCGUG	-1.05 ± 0.076	-0.992 ± 0.08
GUAAAGCAAUAUUACGCUUU	-3.46 ± 0.23	-1.8 ± 0.27
GUAAAGCAAUAUUACGGACA	-0.403 ± 0.085	0.623 ± 0.12
GUAAAGCAAUAUUACGGCAG	-1.5 ± 0.15	-2.25 ± 0.3
GUAAAGCAAUAUUACGGCAU	-0.176 ± 0.067	-0.287 ± 0.078
GUAAAGCAAUAUUACGGGCC	-1.92 ± 0.25	-1.05 ± 0.23
GUAAAGCAAUAUUACGGGCG	-0.457 ± 0.12	-0.386 ± 0.12
GUAAAGCAAUAUUACGUAAG	-1.95 ± 0.1	-1.2 ± 0.13
GUAAAGCAAUAUUACGUCCC	-1.07 ± 0.19	0.449 ± 0.26
GUAAAGCAAUAUUACGUGAG	-2.03 ± 0.084	-0.98 ± 0.1
GUAAAGCAAUAUUACGUUAG	-1.01 ± 0.057	-0.896 ± 0.076
GUAAAGCAAUAUUACGUUCC	-2.91 ± 0.18	0.158 ± 0.14
GUACAGCAAUAUUACGAAGU	-3.32 ± 0.17	-1.67 ± 0.18
